PMC6315623

Molecular target: BS69 MYND domain (residues 427-602) fused to a B42 activation domain (UniProt Q15326)
Assay: yeast two-hybrid (β-galactosidase activity)
Conditions: n = 3; parent: est. 1; read off a plot

Chain of BS69 MYND domain (residues 427-602) fused to a B42 activation domain (Q15326 427-602): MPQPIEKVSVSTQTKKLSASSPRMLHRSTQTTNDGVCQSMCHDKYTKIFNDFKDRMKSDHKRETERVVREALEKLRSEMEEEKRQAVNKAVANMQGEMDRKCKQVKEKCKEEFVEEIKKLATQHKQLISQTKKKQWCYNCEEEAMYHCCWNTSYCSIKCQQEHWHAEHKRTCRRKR

Substance	response (% of HAdV-A12 positive control)
HAdV-D9 E1A PXLXP motif fragment, wildtype, LexA DBD fusion I9V	1
HAdV-D9 E1A PXLXP motif fragment, wildtype, LexA DBD fusion P10C	1.5
HAdV-D9 E1A PXLXP motif fragment, wildtype, LexA DBD fusion T3P	59
HAdV-D9 E1A PXLXP motif fragment, wildtype, LexA DBD fusion T5V	1
